The nanobody polyreactivity screen of Harvey et al. (2022)

Assay: yeast display, Sf9 membrane polyspecificity reagent, FACS + sequencing; frameworks hold sequencing errors
Outline: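 A nanobody's polyreactivity label depends on the gate it was sorted from. Yeast display cells were stained with 10% biotinylated, detergent-solubilized Sf9 membrane reagent for 1 hour at 4 °C, enriched on streptavidin microbeads and sorted by FACS. The low and high (top ~1%) gates were set on anti-HA fluorescence for expression and streptavidin fluorescence for reagent binding.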
In the case of “QDQLVESGGGLVQAGGSLRLSCAASGRTFPGYAMGWYRQAPGKERELVATSTVSDGSTYYADSVKGRFTISRDNAMNTVYLHMNSLIAEDTAVYYCAKDGGRKRSYSDFDYWRQGTQVTVSS”, the “polyreactivity (PSR sort gate)” value is reported as “low polyreactivity”. In the case of “QDQLVESGGGLVQAGGSLRLSCAASGRTFRRYAMGWYRQAPGKERELVAAISASGGSTYYADSVKGRFTISRDNAKNTVYLQMNSLKPEDTAVYYCYALHRAGLFGHYPYESWGQGTQVTVSS”, the “polyreactivity (PSR sort gate)” value is reported as “high polyreactivity”. For “QDQLVESGGGLVQAGGSLRLSCAASGRTFSRYALGWYRQAPGKERELVAAISWSGGTTHYADSVKGRFTISRDNAKNTVYLLMNRLKPEDTAFYYCNKLRQIEFWGQGTQVTVSS”, the “polyreactivity (PSR sort gate)” value was “high polyreactivity”. In the case of “QDQLVESGGGLVQAGGSLRLSCAASGRTFSYYTMGWYRQPPGKERELVARISNRGTNTYYADSVKGRFTISRDNAKNTVYLQLNSLKPEDTAVYYCAKYYYPSIVGYDSWGQGTQVTVSS”, the “polyreactivity (PSR sort gate)” value is reported as “low polyreactivity”. In the case of “QDQLVESGGGLVQAGGSLRLSCAASGRTFTGYTMGWYRQAPGKERELVASISSSGGRTYYADSVKGRFTISRDNAKNTVFLQMKSLKPEDTAVYYCAKRGAYGYGYYSYDYWGQGTQVTVSS”, the “polyreactivity (PSR sort gate)” value is reported as “high polyreactivity”. For “QDQLVESGGGLVQAGGSLRLSCAASGRTFTRYAMGWYRPAPGKERELVAAISKRGGSTYYADSVKGRFTISRDNAKNTVYLQMNSLKPEDTAVYYCAADQPYHDSEYWGQGTQVTVSS”, the “polyreactivity (PSR sort gate)” value was “high polyreactivity”. With “QDQLVESGGGLVQAGGSLRLSCAASGRTFTSNAMGRYRQAPGKERELVAAINFRGDSTYYADSVKGRFTISRDNAKNTVYLQMNSLKPEDSAVYYCAAVGGRSSYRLDYWGQGTQVTVSA” the “polyreactivity (PSR sort gate)” value was “low polyreactivity”. For “QDQLVESGGGLVQAGGSLRLSCAASGRTFVHYVMGWYRQAPGKERELVAAITSSGGSTYADSVKGRFTISRDNAKNTVYLQMNSLKPEDTAVYYCAADYLDGVGDVEHDYWGQGTQVTVSS”, the “polyreactivity (PSR sort gate)” value was “low polyreactivity”. In the case of “QDQLVESGGGLVQAGGSLRLSCAASGRTFVSNGMGWYRQAPGKERELLADINDGDDTYYADSVKGRFTISRDNAKNTVYLQMNSLKPEDTAVYYCAADPYWFFPHYDSWGQGTQVTVSS”, the “polyreactivity (PSR sort gate)” value is reported as “low polyreactivity”. In the case of “QDQLVESGGGLVQAGGSLRLSCAASGRTFVSYVMGGYRQAPGKERELVAAIRRRGGRTYYSDSVKGRFTISRDNAKNTVYLQMNSLKPEDTAVYYCAAAQPGTNAYRVGSWGQGTQVSVSS”, the “polyreactivity (PSR sort gate)” value is reported as “high polyreactivity”. With “QDQLVESGGGLVQAGGSLRLSCAASGRTFVYNAMGWYRKAPGKVRELVAAITRGGSTNYADSVKGRFTISRDNAKNTVYLQMNILKPEDTAGYYCAAGLKRYGSYPWLKSGMGYWGQGTQVTVSS” the “polyreactivity (PSR sort gate)” value was “high polyreactivity”. In the case of “QDQLVESGGGLVQAGGSLRLSCAASGRTFWYYAMGWYRQATGKERELVAAISSRGGTTYYADSVKGRFTISRDNAKNTVYLQMNSVKPEDTAVYYCASERWDLWLLYDYWGQGTQVTVSS”, the “polyreactivity (PSR sort gate)” value is reported as “high polyreactivity”. For “QDQLVESGGGLVQAGGSLRLSCAASGRTFYRNAMGWYRQAPGKERELVAAISGSGVRTYYADSVKGRFTISRDNAKNTVYLHMNSLKPEDTAVYYCARSVTWFRGRFSPDYGSWGQGTQVTVSS”, the “polyreactivity (PSR sort gate)” value was “high polyreactivity”. With “QDQLVESGGGLVQAGGSLRLSCAASGRTFYRYAMGWSRQAPGKERELVAVISTDGSSTYYADSVKGRFTISRDNAKNTVYLQMNSLKPVDTAVYYCAARAPESYVSTRAHYYWGQGTQVTVSS” the “polyreactivity (PSR sort gate)” value was “high polyreactivity”. With “QDQLVESGGGLVQAGGSLRLSCAASGRTFYYSAMGWSRQAPGKERELVATMSRGITNYADSVKGRFTISRDNAKNTVYLQMNSLKPEDTAVYYCAARDGWRSHFRGDYWGQGTQVTVSS” the “polyreactivity (PSR sort gate)” value was “high polyreactivity”. In the case of “QDQLVESGGGLVQAGGSLRLSCAASGSICSEYAMGWYRQAPGKERELVAAISRSGGTTYYADSVKGRFTISRDNAKNTVFLQMNSLKPEDTAVYYCAARYFRGSYPMGYWGQGTQVTVSS”, the “polyreactivity (PSR sort gate)” value is reported as “high polyreactivity”. With “QDQLVESGGGLVQAGGSLRLSCAASGSIFAYYVMGWYRQAPGKERELVAAISKSGGSTYYADSVQGRFTISRDNAKNTVYVQRNSLKPEDPAVYYCAAPQRYPRFYYWGQGTQVTVSS” the “polyreactivity (PSR sort gate)” value was “high polyreactivity”. For “QDQLVESGGGLVQAGGSLRLSCAASGSIFFINAMGWYRQAPGKERELVAAITYSGGSTYYADSVKGRFTISRDNAKYTVYLQMNSLKPEDTAVYYCAADQYSFLPWIAWLLDDYWGQGTQVTVSS”, the “polyreactivity (PSR sort gate)” value was “low polyreactivity”. For “QDQLVESGGGLVQAGGSLRLSCAASGSIFKRYAMGWYRQAPGKERELVAAISYSGGSTYYADSVKGRFTISRDNAKNTVYLQMNSLKPEDTAVYYCAAATYRQQWHYYWGQGTQVTVSS”, the “polyreactivity (PSR sort gate)” value was “high polyreactivity”. With “QDQLVESGGGLVQAGGSLRLSCAASGSIFLIYAMGGYRQAPGKERELVAAITWGGGSTYYADSVKGRFTISRDNAKNTVYLQMTSLKPVDTAVYYCAAYSYSSSFGYRYDYWGQGTQVTVSS” the “polyreactivity (PSR sort gate)” value was “high polyreactivity”. With “QDQLVESGGGLVQAGGSLRLSCAASGSIFQSNAMGWYRQAPGKERELVAAITSVGRTNYADSVKGRFTIARDNAKNTVYLQMNSLKPEDTAVYYCAADLRGDNRYYYWGQGTQVTVSS” the “polyreactivity (PSR sort gate)” value was “low polyreactivity”. For “QDQLVESGGGLVQAGGSLRLSCAASGSIFQSYAMGWYRQAPGKERELVAANDRSGTSTYYADSVKGRFTISRDNAKNTVYLQLNSLKPEDTAVYYCAAVSSRGRFGYTVQIEYDYWGQGTQVTVSS”, the “polyreactivity (PSR sort gate)” value was “low polyreactivity”. With “QDQLVESGGGLVQAGGSLRLSCAASGSIFRRNSIGWYRQAPGKERELVAAIRWSSGSTYYADSVKGRFTISRDNAKNTVYLQMNSLKPEDTAVYYCAAAKRAYSYVLHAFYYWGQGTQVTVSS” the “polyreactivity (PSR sort gate)” value was “high polyreactivity”. In the case of “QDQLVESGGGLVQAGGSLRLSCAASGSIFSYTMGCYRQAPAKQRELVAAITSGGITYYADSVKGRFSISRDNAKNTVYLQMNSLKPEDTAVYYCADGWSSYRFGYWGQGTQVTVSS”, the “polyreactivity (PSR sort gate)” value is reported as “low polyreactivity”. In the case of “QDQLVESGGGLVQAGGSLRLSCAASGSIFVIYAMGWYRPAPGKERQLVAAITTIGGRTYYADSVKGRFTISRDHAKNTVYLQMNSLKPEDTAVYYCAADIRSNRLYDGGYWGQGTQVTVSS”, the “polyreactivity (PSR sort gate)” value is reported as “low polyreactivity”. For “QDQLVESGGGLVQAGGSLRLSCAASGSILRAYAMGWYRQAPGKERELVADIDWSAGITHYADSVKGRFTISRDNAMNPVYLQMNSLKPEDTAVYYCSARYYWYDYIVYYGDYWGQGTLVTVSS”, the “polyreactivity (PSR sort gate)” value was “high polyreactivity”. In the case of “QDQLVESGGGLVQAGGSLRLSCAASGSISYYAMGWYRQAPGKERELVAAISSSGGSTYYADSVKGRFTISRDNAKNTVYLQMNSLKPEDTAVYYCAARYYGFPSKYDYWGQGTQVTVSS”, the “polyreactivity (PSR sort gate)” value is reported as “high polyreactivity”. With “QDQLVESGGGLVQAGGSLRLSCAASGSITAPYAMGWYRQAPGKERELVAAISYSGGSTNYADSVKGRFTISRDNAKNTVYLQMNSRKPEATAVYYCAARGYSGYRTSPLARYDYWGKGTQVTVSS” the “polyreactivity (PSR sort gate)” value was “high polyreactivity”. With “QDQLVESGGGLVQAGGSLRLSCAASGSSFLVYAMGWYRQATGKEREFVAAIRGGGSTNYADSVKGRFTISRDNAMNTVYLQMNSLKPEDTAVYYCAAYLLYTPSMDYWGQGTQVTVSS” the “polyreactivity (PSR sort gate)” value was “low polyreactivity”. For “QDQLVESGGGLVQAGGSLRLSCAASGSTFAYYAMGWYRQAPGKERELVAAITIDGRTSYADSVKGRFTISRDNAKNTVYLQMISLNQVDTAVYYCARGYFPYGYPWRWGYDRFDYWGQGTQVTVSS”, the “polyreactivity (PSR sort gate)” value was “low polyreactivity”. For “QDQLVESGGGLVQAGGSLRLSCAASGSTFGYYAMGWYRQAPRKERELVAAISWRGGSTSYADSVKGRFTISRDNAKNTVYLQMNSLKPEDTAVYYCAAPRGTLTSWAGNYWGQGTQVTVSS”, the “polyreactivity (PSR sort gate)” value was “high polyreactivity”. With “QDQLVESGGGLVQAGGSLRLSCAASGSTFKRYAMGWYSQAPGKVRELVAAISRRGGSTYYADSVKGRFTISRDNAKNTVYLQMNSLKPEDTAVYYCAARIASHHYYYWGQGTQVTVSS” the “polyreactivity (PSR sort gate)” value was “high polyreactivity”. For “QDQLVESGGGLVQAGGSLRLSCAASGSTFQENAMGWYRQAPGKEREFVAAISGSGGSTYYADSVKGRFTISRDNAKNSVYLQMNSLKPEDTAVYYCAAYVTGYVNTVGSGWLVWGVDFWGQGTQVTVSS”, the “polyreactivity (PSR sort gate)” value was “low polyreactivity”. With “QDQLVESGGGLVQAGGSLRLSCAASGSTFRRYAIGWYRQAPGKERELVAAITSGGRTNYADSVKGRFTISRDNAKNTVYLQMNSLKPEDTAVYYCNAKAYKLGQSYWGYDYWGQGTQVTVSS” the “polyreactivity (PSR sort gate)” value was “high polyreactivity”. For “QDQLVESGGGLVQAGGSLRLSCAASGSTFTGYTMGWYRQAPGKERELVAAITYRGGSTYYADSVKGRFTISRDNAKNTVYLQMNSLKPEDTAVYYCAAVPEYYEYTPYDYWGQGTQVTVSS”, the “polyreactivity (PSR sort gate)” value was “low polyreactivity”. In the case of “QDQLVESGGGLVQAGGSLRLSCAASRITIYRYVMGWYRQAPGKERELVAAITSAGSTNYADSVKGRFTISRDHAKTTVYLQMNSLKPEDTAVYYCNADYKGYVRPYVRIRYGYWGQGTQVTVSS”, the “polyreactivity (PSR sort gate)” value is reported as “low polyreactivity”. In the case of “QDQLVESGGGLVQAGGSLRLSCAASVITFVRNAKGWYRQAPGKERELVAAMSGRGGITYYADSVKGRFTISRDNAKNTVYLQMNSLKPEDTAVYYCAASSAGSSYNYWGQGTQVTVSS”, the “polyreactivity (PSR sort gate)” value is reported as “high polyreactivity”. In the case of “QDQLVESGGGLVQAGGSLRLSCAASVSTFRVYAMGWYRQAPGKERELVAAISSSGGITYYADSVKGRFTLSRDNAKNTVYLQMNSLKPEATAVYYCAKGTVIHVLYDYWGEGTQVTVSS”, the “polyreactivity (PSR sort gate)” value is reported as “low polyreactivity”. With “QDQLVESGGGLVQAGGSLRLSCAATASIFVTYAMGWYRQAPGQERELVAAINYSGGSTYYADSVKGRFTISRDNAKNTFYLQMNSLKPEDTAVNYCAADERVDQGWIRMDYWGQGTQVTVSS” the “polyreactivity (PSR sort gate)” value was “low polyreactivity”. For “QDQLVESGGGLVQAGGSLRLSCAATGFIIGWNTMGWYRPAPRKEREVVAAISSGGGSTYYADSVKGRFTISRDNAKNNVYLQMNSLKPEDTAVFYCNAVSFKHVYHTDTYGVNEFVYWGEGTQVTVSS”, the “polyreactivity (PSR sort gate)” value was “high polyreactivity”.
